Experimental data reported in paper PMC10398351, “Structural and molecular insight into antibody recognition of dynamic neoepitopes in membrane tethered MUC1 of pancreatic cancer cells and secreted exosomes” (RSC Chemical Biology, 2023).
Entries after “also recorded” stand apart in the source; their conditions may differ.

Key:
PANC-1 cells = assay: Live cell imaging of Alexa488-conjugated SN-131 on PANC-1 cells; format: cell-based, human; conditions: Alexa 488 conjugated SN-131 10 μg mL−1, 2 h at 37 °C
Experimental: PANC-1 cells (5 × 10^4 cells per well) were cultured with 10% FBS and 2 mM L-glutamine on an 8-well imaging plate (Fischer Scientific) for 48 h in 5% CO2 at 37 °C. Then, Alexa 488 conjugated SN-131 (10 μg mL^−1), 10 μM MUC1-5ST (8), or MAG (5 μg mL^−1) dissolved in Opti-MEM medium (gibco) was co-incubated with PANC-1 cells for 2 h in 5% CO2 at 37 °C. Cells were washed with Opti-MEM and stained with Hoechst 33342 (2.5 ng mL^−1 in Opti-MEM) for 30 min. […] The pictures were imaged with 60xlens and the following filter set (Blue: #OP-66843 Excitation 360/40, Emission 460/50, Green: #OP-66836, Excitation 470/40, Emission 535/50, Red: #OP-66837, Excitation 540/25, Emission […]). Imaging pictures were analysed by BZ-II Analyzer software (Keyence, Osaka).

MUC1 TRD [1] = conditions: cited from earlier work
Text: By using a robust synthetic glycopeptide library,[21–24] we have established a straightforward approach to antibodies recognizing cancer-relevant glycopeptidic epitopes modified with aberrant O-glycans, namely “dynamic neoepitopes”, found in the MUC1 TRD (Fig. 2a).[19,20] […] We considered that SN-131 is a highly potential anti-MUC1 antibody because this antibody binds specifically MUC1 TRD having core 1 type O-glycans overexpressed in many cancers including pancreatic cancer but not core 2 type O-glycans found in normal cells. However, the structural and molecular basis of the epitope recognition by SN-131 remain to be fully understood. We needed to investi ...

[2] = molecular target: MUC1 bearing ST antigen at the immunodominant DTR motif; assay: SPR affinity of SN-131 with MUC1 bearing ST antigen; format: binding; conditions: SN-131 with MUC1 bearing ST antigen at the immunodominant DTR motif; abstract
Experimental: The binding affinity of SN-131 Fab with MUC1 TRD models was measured by using a Biacore 2000 surface plasmon resonance (SPR) instrument (GE Healthcare). Synthetic MUC1 TRD models 2–4 with a C-terminal cysteine residue were immobilized on a CM5 chip (GE Healthcare) by a standard protocol of the maleimide coupling. The SN-131 Fab was injected over the surface of the immobilized MUC1 TRD models 2–4 and three kinetic parameters, the association rate constant (kon), the dissociation rate constant (koff), and the equilibrium dissociation constant (KD) were obtained with BIAevaluation 4.1 software (GE Healthcare) using a bivalent binding model. Isothermal titration calorimetry (ITC) experiments were also carried out to determine the thermodynamic parameters of the interaction between SN-131 and non-glycosylated-/Tn-MUC1 TRDs.7 All experiments and analyses were performed by using nano ITC (TA Instrument) and Nanoanalyze based on as independent model.

MUC1 TRD [3] = assay: Epitope mapping of SN-131 on glycopeptide microarray; format: binding; conditions: SN-131 1 µg/mL, 2 h at room temperature, Cy3 labeled anti-mouse IgG
Experimental: 100 mM solutions of the synthetic glycopeptides capped with ketone-linker at the N-terminus (5–9) dissolved in 25 mM sodium acetate buffer (pH 5.0) containing 0.005% Tween-20 (w/v) were robotically printed on plastic slides coated with a copolymer carrying aminooxy-/phosphorylcholine functional groups according to the protocol reported previously.[20,22,24] Detailed conditions for the binding assay are described in the ESI. ^† […]
as Additional Data in Supporting Information. Compounds 3 , 5, and 6 were synthesized previously5,7,8 and available for the present study.
Glycopeptide microarray. 100 mM solutions of the synthetic glycopeptides capped with ketone-linker at N -terminus (5~9) dissolved in 25 mM sodium acetate buffer (pH 5.0) containing 0.005% Tween- 20 (w/v) were robotically printed on plastic slides coated with a copolymer carrying aminooxy-/phosphorylcholine functional groups according to the protocol reported previ ousl y.5,7-9 For the epitope analysis of SN-131, antibody solutions (1 µg/mL) were added to each well of the slides. After incubation for 2 h at room temperature, the slides were rinsed and added with Cy3 labeled anti-mouse IgG polyclonal antibody (1 µg/mL). After washing, fluorescence of the wells were measured using a GlycoStation 1200 system and analysed with the ArrayVision […]
Anti-MU C1 mA b (SN -131). […]

Kd [2]: 1.58 nM
B1: SN-131: anti-MUC1 mAb (clone 1B2, IgG2a) binding MUC1 TRD with Tn, T and ST antigens at the DTR motif (antibody, V domains shown)
VH: QVQLQQSGAELARPGASVKLSCKASGYTFTNYGLSWVKQRTGQGLEWIGENHPGSGIIYHNEKFRGKATLTADKSSSTAYVQLSSLTSEDSAVYFCARSSGTRGFAYWGQGTLVTVSA
VL: DVLMTQTPLSLPVSLGDQASISCRSSQSIVHSNGNTYLEWYLQKPGQSPKLLIYKVSNRFSGVPDRFSGSGSGTDFTLKISRVEAEDLGVYYCFQGSHGPWTFGGGTKLEIK
binding to PANC-1 cell surface MUC1 TRD (PANC-1 cells): binds strongly | glycoform specificity of binding to MUC1 TRD (MUC1 TRD [1]): does not bind to MUC1 TRD when the threonine residue of this immunodominant region is modified with STn, dST, or core 2-type mature complex O-glycan structures | binding of SN-131 to MUC1 TRD glycoforms (epitope mapping, in words) (MUC1 TRD [3]): binds MUC1 TRD with Tn, T, and ST antigens attached to the immunodominant DTR motif; also recorded: did not bind to non-glycosylated MUC1 TRD
